Patent US20050203281A1, “Production of recombinant fragments of muscle acetylcholine receptor and their use for ex vivo immunoadsorption of anti-ch receptor antibodies from myasthenic patients” (priority 2002, published 2005)
“Also recorded” adds a separate entry of the source.

Experiments:
alpha1-210 fragment = alpha1-210 fragment (Homo sapiens, UniProt P02708); details: read-out: concentration of unlabeled toxin giving 50% inhibition of 125I-alpha-BTX binding
[1] = test system: anti-AChR antibodies from MG sera; assay: Immunoadsorption of anti-AChR antibodies from MG sera by CNBr-Sepharose-immobilized subunit domains, RIA with human AChR from TE671 cells; assay type: binding; details: expressed in E. coli, refolded, similarly immobilized, same MG sera
[2] = test system: anti-AChR antibodies from MG sera; assay: Immunoadsorption of anti-AChR antibodies from MG sera by immobilized epsilon1-219, RIA with human AChR from TE671-epsilon cells; assay type: binding
Procedure: A subset of […] sera was also tested with gamma1-218 immobilized on CNBr-Sepharose (gray bars) and a subset of 22 sera was screened against epsilon1-219 immobilized on CNBr-Sepharose (blank bars) as described in the Example 3. Sera which have not been tested for immunoadsorption with epsilon1-219 are indicated in the X axis with open circles and sera which have not been tested on both gamma1-218 and epsilon1-219 are indicated with filled circles.
Immunoadsorption of MG autoantibodies by immobilized gamma1-218 or epsilon1-219 domains. 0.1 mg[…] of purified gamma1-218 or epsilon 1-219 mixed with 1.4 mg BSA was covalently immobilized on 1 gr of CNBr-Sepharose according to manufacturer's protocol. In parallel, an identical column was prepared with 1.5 mg BSA, to serve as control. Variable amounts of MG patient sera containing 20 fmoles of anti-AChR antibodies were incubated with 1 ug immobilized gamma1-218 mixed with BSA or the same amount of BSA at 4° C. for 2-3 h followed by centrifugation Samples of the supernatants, each containing an amount corresponding to 6 fmoles of preadsorbed anti-AChR antibody, were subsequently tested in a typical RIA MG diagnostic test as above. Sera which had been incubated with gamma1-218 were screened with the human AChR from TE671 cells (which contains alpha, beta, gamma and delta subunits) whereas sera immunoadsorbed with epsilon1-219 were screened with human AChR from TE671-epsilon cells(which contains alpha, beta, gamma and epsilon subunits) (Beeson et al., Neurology, 47,1552-1555, 1996). The percentage of immunoadsorption was estimated as above. Several MG sera from the group of the sera tested with immobilized alpha1-210 were assayed for binding to human AChR after incubation with immobilized gamma1-218 (43 sera) or epsilon1-219 (22 sera) or BSA only. Incubation with gamma1-218 led to a 29-56% reduction for 16% of the tested sera (7 sera out of 43), whereas it caused a 15%-30% reduction in another 28% of the tested sera (12 sera) (FIG. 6, gray bars). Other tested MG sera reached up to 68% immunoadsorption by gamma1-218 (not shown). […]

[3] = test system: anti-AChR antibodies from MG sera; assay: Immunoadsorption of anti-AChR antibodies from MG sera by CNBr-Sepharose-immobilized subunit domains, RIA with human AChR from TE671 cells; assay type: binding; details: for immunoadsorption of anti-AChR antibodies (in words): immobilized on Sepharose-CNBr
Procedure: FIG. 6 illustrates the immunoadsorption of anti-AChR antibodies from MG sera using immobilized alpha1-210 (black bars), gamma1-218 (grey bars) and epsilon1-219 (blank bars). Each subunit has been expressed in the yeast Pichia pastoris and the purified proteins have been covalently immobilized on CNBr-Sepharose beads. 64 MG positive sera were assayed for binding to human AChR after incubation with alpha1-210 immobilized on CNBr-Sepharose (together with BSA) or with just BSA immobilized on the same insoluble matrix. 2.5 ul of each MG patient serum were incubated with 0.2 ug immobilized alpha1-210 mixed with BSA or the same amount of BSA at […] for 2-3h (in a total volume of 0.16 ml) followed by centrifugation. Samples of the supernatants, each containing an amount corresponding to 0.9 ul of the treated MG sera were subsequently used in a typical RIA MG diagnostic test (Lindstrom et al., Meth. Enzymol. 74, 432460, 1981) with human AChR from TE671 cells. The percentage of immunoadsorption was estimated as described in the Example 3. Samples were processed in duplicates. Results shown (black bars) are an average of two experiments. Sera are sorted in decreasing percentage of immunoadsorption to immobilized alpha1-210.
FIG. 7 illustrates the immunoadsorption of anti-AChR antibodies from MG sera against immobilized alpha1-210 (black bars), gamma1-218 (gray bars) and a mix of both immobilized alpha1-210 and gamma1-218 (hatched bars). 9 MG sera were assayed for binding to human AChR after incubation of 20 fmoles anti-AChR MG antibodies with alpha1-210 (1 ug), or gamma1-218 (1 ug) or alpha1-210/gamma1-218 mix (containing 1 ug of each subunit) immobilized on CNBr-Sepharose. Incubation with just BSA immobilized to the same insoluble matrix served as a control to calculate the percent immunoadsorption against each of the subunits and the mix of both. After incubation with the Sepharose-immobilized proteins, sera were screened in a typical RIA experiment using TE671 AChR. The percentage of immunoadsorption was estimated as described in the Example 3. Samples were processed in duplicates. Results shown are an average of two experiments.
Immunoadsorption of MG autoantibodies by immobilized alpha1-210. 0.1 mg alpha1-210 mixed with 1.4 mg BSA was covalently bound to 0.5 gr CNBr-Sepharose according to manufacturer's protocol (Amersham). BSA was simply added to increase the protein/Sepharose ratio because the ratio of recombinant protein to Sepharose beads used would otherwise be too small; BSA is not necessary for larger scale experiments. In parallel, 1.5 mg BSA was bound to the same amount of CNBr-Sepharose under the same conditions as control. 2.5 ul MG patient sera were incubated with 0.2 ug immobilized alpha1-210 mixed with BSA, or the same amount of immobilized BSA alone, at 4° C. for 2-3 h (in a total volume of 0.16 ml) followed by centrifugation for bead precipitation. Samples of the supernatants, each containing an amount corresponding to 0.9 ul of these treated MG sera were subsequently used in a typical RIA MG diagnostic test (Lindstrom et al., Meth. Enzymol. 74, 432460, 1981) with human AChR from TE671 cells. The percentage of immunoadsorption was estimated as the ratio between the reduction in immunoprecipitated radiolabeled human AChR after incubation with alpha1-210 and the immunoprecipitated radiolabeled human AChR without incubation with alpha1-210 (incubation with plain immobilized BSA). 64 MG positive sera were assayed for binding to human AChR after incubation with immobilized alpha1-210 or BSA. […] We also tested immunoadsorption of the same set of MG sera by incubating 0.2 ug immobilized alpha1-210 with a fixed amount of anti-AChR antibodies (20 fmoles in variable volumes of MG sera depending on their titer) rather than a fixed serum volume.
Immunoadsorption of MG autoantibodies by immobilized gamma1-218 or epsilon1-219 domains. […]

alpha-bungarotoxin [alpha-BTX]
IC50 (alpha1-210 fragment): 5 nM

B1: alpha1-208: extracellular alpha domain of human AChR expressed in E. coli and refolded according to Tsouloufis et al. (protein)
chain: SEHETRLVAKLFKDYSSVVRPVEDHRQVVEVTVGLQLIQLINVDEVNQIVTTNVRLKQQWVDYNLKWNPDDYGGVKKIHIPSEKIWRPDLVLYNNADGDFAIVKFTKVLLQYTGHITWTPPAIFKSYCEIIVTHFPFDEQNCSMKLGTWTYDGSVVAINPESDQPDLSNFMESGEWVIKESRGWKHSV
immunoadsorbing efficiency compared with yeast-expressed alpha domain [1]: significant but much lower | immunoadsorbing efficiency compared with yeast-expressed alpha domain ([1]; listed as alpha-subunit fragment expressed in E. coli): much lower level

B2: epsilon1-219 (protein)
chain: DYKDDDDKKNEELRLYHHLFNNYDPGSRPVREPEDTVTISLKVTLTNLISLNEKEETLTTSVWIGIDWQDYRLNYSKDDFGGIETLRVPSELVWLPEIVLENNIDGQFGVAYDANVLVYEGGSVTWLPPAIYRSVCAVEVTYFPFDWQNCSLIFRSQTYNAEEVEFTFAVDNDGKTINKIDIDTEAYTENGEWAIDFCPGVIRRHHGGATDGPGETDVIYSLIIRRK
modifications: glycosylated
reduction of anti-AChR antibodies, best-adsorbed sera ([2]; 27% of screened sera (6/22)): 30-54% | reduction of anti-AChR antibodies, intermediate sera ([2]; another 45% of the sera (10/22)): 15%-30% | immunoadsorption of anti-AChR antibodies (in words) ([2]; immobilized on Sepharose-CNBr): lower but very significant percentages; also recorded: considerable amounts

B3: gamma1-218: extracellular domain of human muscle AChR gamma subunit, Pichia pastoris, FLAG and six-histidine tag (protein)
chain: DYKDDDDKRNQEERLLADLMQNYDPNLRPAERDSDVVNVSLKLTLTNLISLNEREEALTTNVWIEMQWCDYRLRWDPRDYEGLWVLRVPSTMVWRPDIVLENNVDGVFEVALYCNVLVSPDGCIYWLPPAIFRSACSISVTYFPFDWQNCSLIFQSQTYSTNEIDLQLSQEDGQTIEWIFIDPEAFTENGEWAIQHRPAKMLLDPAAPAQEAGHQKVVFYLLIQRK
modifications: glycosylated
reduction of anti-AChR antibodies, best-adsorbed sera ([3]; 16% of tested sera (7 of 43), 1 ug immobilized protein, 20 fmoles antibody): 29-56% | reduction of anti-AChR antibodies, intermediate sera ([3]; another 28% of tested sera (12 sera)): 15%-30% | immunoadsorption of anti-AChR antibodies (in words) [3]: lower but very significant percentages; also recorded: large fractions; also recorded: considerable amounts | maximal immunoadsorption in other tested MG sera ([3]; other tested MG sera (not shown)): up to 68% | immunoadsorption of serum no. 3 ([3]; serum no. 3, 1 ug of each immobilized subunit, 20 fmoles antibody): 22%

B4: beta1-222: extracellular domain of human muscle AChR beta subunit, Pichia pastoris, FLAG and six-histidine tag (protein)
chain: DYKDDDDKMTPGALLMLLGALGAPLAPGVRGSEAEGRLREKLFSGYDSSVRPAREVGDRVRVSVGLILAQLISLNEKDEEMSTKVYLDLEWTDYRLSWDPAEHDGIDSLRITAESVWLPDVVLLNNNDGNFDVALDISVVVSSDGSVRWQPPGIYRSSCSIQVTYFPFDWQNCTMVFSSYSYDSSEVSLQTGLGPDGQGHQEIHIHEGTFIENGQWEIIHKPSRLIQPPG
modifications: glycosylated
immunoadsorption of anti-AChR antibodies (in words) [3]: lower but very significant percentages
